# Substitutions are numbered along the chain they refer to. Names may count otherwise.
# B1: PD1B750 (antibody, human IgG1, kappa, V domains shown)
# VH: QVQLVQSGAEVKKPGASVKVSCKASGYTFTTYWMHWVRQAPGQGLEWMGEINPNNGGINYAQKFQGRVTLTVDKSISTAYMELSRLRSDDTAVYYCTIDYYDYGGYWGQGTLVTVSS
# VL: DIQMTQSPSSLSASVGDRVTITCKASQNVGTNVAWYQQKPEKAPKSLIYSASYRYSGVPSRFSGSGSGTDFTLTISSLQPEDFATYYCQQYNIYPYTFGQGTKLEIKR
# notes: Humanized PD1B506, IgG1; also called VH PD1H388; VL PD1L470
# B2: PD1B743 (antibody, human IgG1, kappa, V domains shown)
# VH: QVQLVQSGSELKKPGASVKVSCKASGYTFTDYSMHWVRQAPGQGLEWMGWINIETGEPTYAQGFTGRFVFSLDTSVSTAYLQICSLKAEDTAVYFCARDYYGTYFYAMDYWGQGTLVTVSS
# VL: EIVLTQSPATLSLSPGERATLSCTASSSVSSSYLHWYQQKPGLAPRLLIYSTSNLASGIPDRFSGSGSGTDYTLTISRLEPEDFAVYYCHQYHRSPLTFGQGTKLEIKR
# notes: Humanized PD1B505, IgG1; also called VH PD1H384; VL PD1L469
# B3: PD1B756 (antibody, human IgG1, kappa, V domains shown)
# VH: QITLKESGPTLVKPTQTLTLTCTFSGFSLSTSGMGVSWIRQPPGKALEWLAHIYWDDDKRYSPSLKSRLTITKDTSKNQVVLTMTNMDPVDTGTYYCVRKGYYDYGYVMDYWGQGTLVTVSS
# VL: DIVMTQSPLSLPVTPGEPASISCRSSKSLLHSNGITYLNWYLQKPGQSPQLLIYQMSNLASGVPDRFSGSGSGTDFTLKISRVEAEDVGVYYCAQNLELPLTFGGGTKVEIKR
# notes: Humanized PD1B512, IgG1; also called VH PD1H389; VL PD1L472
# B4: PD1B878 (antibody, human IgG1, kappa, V domains shown)
# VH: B2 VH with C84S
# VL: B2 VL
# notes: C84S variant of PD1B743, IgG1; also called VH PD1H405; VL PD1L469
# B5: PD1B1090 (antibody, human IgG1, kappa, V domains shown)
# VH: B2 VH with E57Y, C84S
# VL: B2 VL with V29F
# notes: also called VH PD1H585; VL PD1L651
# B6: PD1B1086 (antibody, human IgG1, kappa, V domains shown)
# VH: B2 VH with E57H, C84S
# VL: B2 VL
# notes: also called VH PD1H586; VL PD1L469
# B7: PD1B1094 (antibody, human IgG1, kappa, V domains shown)
# VH: B2 VH with E57H, C84S
# VL: B2 VL with S30P
# notes: also called VH PD1H586; VL PD1L652
# B8: Fab variant of PD1B878 with VH PD1H585 (E57Y) (Fab, V domains shown)
# VH: B2 VH with E57Y, C84S
# VL: EIVLTQSPATLSLSPGERATLSCTASSSVSSSYLHWYQQKPGLAPRLLIYSTSNLASGIPDRFSGSGSGTDYTLTISRLEPEDFAVYYCHQYHRSPLTFGQGTKLEIK
# notes: Soluble Fab in E. coli supernatant; pairing with the parental VL inferred from the non-combinatorial library design
# B9: Fab variant of PD1B878 with VH PD1H586 (E57H) (Fab, V domains shown)
# VH: B2 VH with E57H, C84S
# VL: B8 VL
# notes: Soluble Fab in E. coli supernatant; pairing with the parental VL inferred
# B10: Fab variant of PD1B878 with VL PD1L651 (V29F) (Fab, V domains shown)
# VH: B2 VH with C84S
# VL: B8 VL with V29F
# notes: Soluble Fab in E. coli supernatant; pairing with the parental VH inferred
# B11: Fab variant of PD1B878 with VH PD1H587 (E57W) (Fab, V domains shown)
# VH: B2 VH with E57W, C84S
# VL: B8 VL
# notes: as for B9
# B12: Fab variant of PD1B878 with VL PD1L652 (S30P) (Fab, V domains shown)
# VH: B2 VH with C84S
# VL: B8 VL with S30P
# notes: as for B10
# Biological target: T1, human PD-1 expressed on cells (human, UniProt Q15116 25-288)
# Assay: cell-based or functional assay
# T1 sequence (Q15116 25-288 limits assumed): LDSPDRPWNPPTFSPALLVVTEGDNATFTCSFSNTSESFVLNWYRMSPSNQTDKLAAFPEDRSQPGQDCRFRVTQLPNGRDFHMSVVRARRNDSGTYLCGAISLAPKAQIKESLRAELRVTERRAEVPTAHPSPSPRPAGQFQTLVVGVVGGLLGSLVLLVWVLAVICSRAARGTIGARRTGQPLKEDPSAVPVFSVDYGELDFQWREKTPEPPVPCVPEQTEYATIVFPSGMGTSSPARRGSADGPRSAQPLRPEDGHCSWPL
row,Binder,"mean % inhibition of T cell proliferation, CMV-PBMC assay (FIG. 5B) [%]"
1,B1,65.9
2,B2,58
3,B3,36.7

# Biological target: T1, human PD-1 expressed on cells
# Assay: cell-based or functional assay
# Remark: another data set of the same source
Binder,"% inhibition at 10 ug/ml mAb, CMV-PBMC assay, donor D4 [%]","% inhibition at 10 ug/ml mAb, CMV-PBMC assay, donor D5 [%]","% inhibition at 10 ug/ml mAb, CMV-PBMC assay, donor D3 [%]"
B1,24.2,75,–
B2,30.5,64,–
B3,0.3,69.3,27.4

# Biological target: T1, human PD-1 expressed on cells
# Assay: cell-based or functional assay
# Remark: another data set of the same source
row,Binder,"% inhibition of activated T cells, CMV-PBMC assay, donor D1 [%]"
1,B4,78.3

# Biological target: T1, human PD-1 expressed on cells
# Assay: cell-based or functional assay
# Remark: another data set of the same source
row,Binder,"Mean % inhibition across two donors, CMV-PBMC assay [%]"
1,B5,74.8
2,B6,72.7
3,B7,77.9

# Biological target: T2, human PD-1 (soluble analyte in SPR) (human, UniProt Q15116 25-170, limits assumed)
# T2 construct: also called CD279; PDCD1
# Assay: SPR (ProteOn XPR36), mAb captured on anti-human IgG Fc, PD-1 as analyte, 25 C
# Method: (§1) Affinity measurements were performed using a ProteOn XPR36 system (BioRad). […] Approximately 5000 RU (response units) of mAbs were immobilized. The kinetic experiments were performed at 25° C. in running buffer (DPBS+0.01% P20+100 μg/mL BSA). To perform kinetic experiments, 200 RU of mAbs were captured followed by injections of analytes (human and cyno PD-1) at concentrations ranging from 1.563 nM to 400 nM (in a […] serial dilution). The association phase was monitored for 3 minutes at 50 μL/min, then followed by 10 or 15 minutes of buffer flow (dissociation phase). The chip surface was regenerated with two 18 second pulses of 100 mM H₃PO₄ (Sigma, Cat #7961) at 100 μL/min.
# (§2) The collected data were processed using ProteOn Manager software. First, the data was corrected for background using inter-spots. Then, double reference subtraction of the data was performed by using the buffer injection for analyte injections. The kinetic analysis of the data was performed using a Langmuir 1:1 binding model. The result for each mAb was reported in the format of ka (On-rate), kd (Off-rate) and KD (equilibrium dissociation constant).
# Affinity of the parental and humanized antibodies to PD-1 was measured using SPR as described in Example 1.
# T2 sequence (Q15116 25-170 limits assumed): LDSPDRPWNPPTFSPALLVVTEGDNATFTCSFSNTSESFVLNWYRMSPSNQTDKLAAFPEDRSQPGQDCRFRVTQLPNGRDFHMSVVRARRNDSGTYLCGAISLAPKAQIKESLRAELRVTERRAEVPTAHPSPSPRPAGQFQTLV
Binder,Kd [nM],koff [s⁻¹],kon [M⁻¹ s⁻¹]
B1,23.2,0.00832,359000
B4,58.9,0.00351,59800
B2,32.8,0.003,91500
B3,18.1,0.00214,118000

# Biological target: T3, cyno PD-1 (soluble analyte in SPR) (cyno)
# T3 construct: also called cynomolgus PD-1
# Assay: SPR (ProteOn XPR36), mAb captured on anti-human IgG Fc, cyno PD-1 as analyte, 25 C
# Method: as §1, §2
# (§3) Affinity of the antibodies to human and cyno PD-1 was measured using SPR as described in Example 1.
Binder,Kd [nM],koff [s⁻¹],kon [M⁻¹ s⁻¹]
B5,1.43,0.000185,130000
B6,31.8,0.00544,171000
B7,12,0.00162,135000

# Biological target: T2, human PD-1 (soluble analyte in SPR)
# Assay: SPR (ProteOn XPR36), mAb captured on anti-human IgG Fc, human PD-1 as analyte, 25 C
# Method: as §1, §2, §3
Binder,Kd [nM],koff [s⁻¹],kon [M⁻¹ s⁻¹]
B5,0.223,2.37e-05,106000
B6,3.19,0.000394,124000
B7,0.871,9.16e-05,105000

# Biological target: T4, biotinylated Human PD-1/PDCD1 (Acro Biosystems. Cat #PD1-H82E4) (human, UniProt Q15116 25-167, biotinylated)
# T4 construct: Bought reagent, construct not described
# Assay: Fab ELISA: Fab captured by anti-Fd(CH1), biotinylated human PD-1 at 5 nM, streptavidin-HRP chemiluminescence; reference parental PD1B878 Fab
# Method: For follow-up screening, plasmid DNA was prepared from overnight culture of the TG-1 Escherichia coli cells and the pIX gene was excised by NheI/SpeI digestion. After ligation, the DNA was transformed into TG-1 cells and grown on LB/Agar plates overnight. The next day, colonies were picked, grown overnight, and the cultures used for (i) colony sequencing of the V-regions, and (ii) induction of Fab production. For Fab production, the overnight culture was diluted 100 folds in new media and grown for 5-6 hours at 37° C. Fab production was induced by the addition of fresh media containing IPTG and the cultures were grown overnight at 30° C. The following day, the cultures were spun down and the supernatants, containing the soluble Fab proteins, were used for Fab ELISA. For the ELISA, the soluble Fab proteins were captured onto plates by a polyclonal anti-Fd(CH1) antibody. After washing and blocking, biotinylated Human PD-1/PDCD1 was added at 5 nM concentration. This concentration enabled ranking of the Fab variants, defined as fold change versus the parent, in which the parental Fab, present as a control in all plates, is defined as 100% binding. The biotinylated human PD-1 was detected by HRP-conjugated streptavidin with chemiluminescence measured in a plate reader.
# T4 sequence (Q15116 25-167 limits assumed): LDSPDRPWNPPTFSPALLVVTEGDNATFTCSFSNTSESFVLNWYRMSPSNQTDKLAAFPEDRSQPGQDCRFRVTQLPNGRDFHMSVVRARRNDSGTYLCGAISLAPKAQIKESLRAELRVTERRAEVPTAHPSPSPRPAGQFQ
row,Binder,fold binding relative to parental Fab [fold]
1,B8,≥ 10
2,B9,≥ 10
3,B10,≥ 10
4,B11,≥ 10
5,B12,≥ 10

# From patent publication US20180355061A1 (Janssen / Centocor, published 2018)
